In US9266939B2, “Compositions comprising natriuretic peptides and methods of use thereof” (Alexion Pharmaceuticals, Inc., priority 2010, dated 2016):
Peptide text beside a SMILES is read from it.

What was measured:
[1] = target: neutral endopeptidase (NEP) (Homo sapiens, UniProt P08473)
NPR-B [2] = target: T1, NPR-B (Homo sapiens, UniProt P20594); experiment: Whole cell guanylyl cyclase (cGMP) assay, NPR-B; type: cell-based; parameters: expressed in transfected cells; settings: for potency compared with CNP22: CNP22 position 17 point mutants, NPR-B whole cell cGMP assay (FIG. 30); for efficacy relative to CNP / potency relative to CNP (times less than that of CNP): NPR-B whole cell assay (FIG. 21C)
T1 sequence (P20594 23-1047): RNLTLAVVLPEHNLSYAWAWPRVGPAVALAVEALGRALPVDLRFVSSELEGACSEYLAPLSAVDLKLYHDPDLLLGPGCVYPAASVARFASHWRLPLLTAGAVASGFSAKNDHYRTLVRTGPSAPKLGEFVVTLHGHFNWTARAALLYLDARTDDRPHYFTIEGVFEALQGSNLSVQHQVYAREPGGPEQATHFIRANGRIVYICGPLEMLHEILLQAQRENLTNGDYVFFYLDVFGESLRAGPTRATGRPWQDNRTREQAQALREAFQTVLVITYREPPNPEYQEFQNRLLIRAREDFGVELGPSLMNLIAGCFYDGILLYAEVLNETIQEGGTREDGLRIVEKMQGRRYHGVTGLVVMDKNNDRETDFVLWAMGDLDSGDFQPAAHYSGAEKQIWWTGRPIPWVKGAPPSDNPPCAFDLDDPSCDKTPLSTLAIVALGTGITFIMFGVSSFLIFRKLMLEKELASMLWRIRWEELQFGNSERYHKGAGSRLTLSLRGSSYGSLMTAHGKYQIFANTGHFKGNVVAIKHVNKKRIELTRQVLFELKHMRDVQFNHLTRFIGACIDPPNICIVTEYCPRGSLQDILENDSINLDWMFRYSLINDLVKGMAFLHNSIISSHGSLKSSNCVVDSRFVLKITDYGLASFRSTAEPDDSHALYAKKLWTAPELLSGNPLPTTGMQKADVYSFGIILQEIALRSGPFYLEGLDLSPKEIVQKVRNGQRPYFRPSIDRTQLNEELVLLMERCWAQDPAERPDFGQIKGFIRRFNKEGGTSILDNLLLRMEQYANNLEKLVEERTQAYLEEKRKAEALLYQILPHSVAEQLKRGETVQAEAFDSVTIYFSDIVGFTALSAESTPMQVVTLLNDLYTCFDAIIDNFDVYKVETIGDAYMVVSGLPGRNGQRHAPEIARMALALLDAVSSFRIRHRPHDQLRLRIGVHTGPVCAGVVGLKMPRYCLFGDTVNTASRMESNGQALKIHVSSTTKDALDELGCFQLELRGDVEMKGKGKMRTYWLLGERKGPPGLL
Protocol: HEK293S cells in a semi-confluent 75 cm2 flask are transfected with 30 μg of plasmid DNA coding for the appropriate receptor, e.g., human NPR-B or NPR-A, using Lipofectamine-2000CD. Alternatively, a stable polyclonal HEK293 S cell line expressing either human NPR-B or NPR-A was used. 24 hours after transfection, cells are trypsinized and plated into 48-well plates at 1×10^5 cells/well. Guanylyl cyclase assay is carried out 24 hours post-plating. Cells are first incubated for 30 minutes at 37° C. with serum-free DMEM medium. Then, they are incubated in triplicate with or without increasing concentrations of reference or test proteins in serum-free DMEM supplemented with 1 mM IBMX and 0.5% BSA, at 37° C. for 30 minutes to one hour. CNP serves as a suitable reference for NPR-B, while ANP is a suitable reference for NPR-A. Finally, cells are washed with ice-cold PBS and solubilized in lysis buffer from Catchpoint cGMP kit (Molecular devices). Concentrations of cGMP in lysate are determined using the Catchpoint cGMP kit. Dose-response curves are analysed with GraphPad Prism 5 software using non-linear regression with four-parameter logistic equation.

NPR-B [3] = target: T1, NPR-B; experiment: Membrane guanylyl cyclase (cGMP) assay, NPR-B; type: biochemical
[4] = first NPR-B membrane assay (FIG. 21A)
[5] = second NPR-B membrane assay (FIG. 21B)

neutral endopeptidase (NEP), sequence (P08473 whole entry): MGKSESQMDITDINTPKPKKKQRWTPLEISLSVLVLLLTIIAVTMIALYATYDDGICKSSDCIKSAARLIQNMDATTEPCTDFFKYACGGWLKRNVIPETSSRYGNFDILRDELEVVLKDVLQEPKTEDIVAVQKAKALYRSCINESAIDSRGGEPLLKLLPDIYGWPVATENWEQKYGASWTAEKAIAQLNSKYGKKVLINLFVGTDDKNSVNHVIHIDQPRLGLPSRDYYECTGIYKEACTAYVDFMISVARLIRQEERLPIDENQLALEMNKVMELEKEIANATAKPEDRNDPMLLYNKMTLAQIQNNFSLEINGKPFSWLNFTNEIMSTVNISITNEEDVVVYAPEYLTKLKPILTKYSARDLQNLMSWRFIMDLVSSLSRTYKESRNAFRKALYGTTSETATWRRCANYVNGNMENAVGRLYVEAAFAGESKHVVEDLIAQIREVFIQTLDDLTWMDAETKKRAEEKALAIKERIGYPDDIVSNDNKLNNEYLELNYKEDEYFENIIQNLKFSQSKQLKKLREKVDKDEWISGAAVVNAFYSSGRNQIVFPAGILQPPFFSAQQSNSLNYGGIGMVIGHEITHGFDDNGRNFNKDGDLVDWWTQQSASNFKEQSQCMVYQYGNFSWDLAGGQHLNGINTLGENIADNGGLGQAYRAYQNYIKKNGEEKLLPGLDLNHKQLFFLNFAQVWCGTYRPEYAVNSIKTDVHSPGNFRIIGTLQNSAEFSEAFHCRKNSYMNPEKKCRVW

CC[C@H](C)[C@@H]1NC(=O)[C@H](CCCNC(=N)N)NC(=O)[C@H](CC(=O)O)NC(=O)[C@H](CC(C)C)NC(=O)[C@H](CCCCN)NC(=O)[C@H](CC(C)C)NC(=O)CNC(=O)[C@H](Cc2ccccc2)NC(=O)[C@@H](NC(=O)CNC(=O)[C@H](CCCCN)NC(=O)[C@H](CO)NC(=O)[C@H](CC(C)C)NC(=O)CN)CSSC[C@@H](C(=O)NCC(=O)N[C@@H](CO)C(=O)N[C@@H](CC(C)C)C(=O)N[C@@H](CCCNC(=N)N)C(=O)N[C@@H](CC(=O)O)C(=O)N2CCC[C@H]2C(=O)N[C@@H](CCCNC(=N)N)C(=O)N2CCC[C@H]2C(=O)N[C@@H](CC(N)=O)C(=O)N[C@@H](C)C(=O)N2CCC[C@H]2C(=O)N[C@@H](CO)C(=O)N[C@H](C(=O)N[C@@H](CO)C(=O)N[C@@H](C)C(=O)O)[C@@H](C)O)NC(=O)CNC(=O)[C@H](CC(C)C)NC(=O)CNC(=O)[C@H](CO)NC(=O)[C@H](CCSC)NC(=O)[C@H](CO)NC(=O)CNC1=O [CDNP-G1] (HELM PEPTIDE1{G.L.S.K.G.C.F.G.L.K.L.D.R.I.G.S.M.S.G.L.G.C.G.S.L.R.D.P.R.P.N.A.P.S.T.S.A}$PEPTIDE1,PEPTIDE1,6:R3-22:R3$$$V2.0)
sensitivity to NEP degradation [1]: comparable NEP sensitivity

CNP-F17: CNP22 point mutant at position 17; SEQ ID NO: 119 (GLSKGCFGLKLDRIGSFSGLGC; Synthetic Construct (CNP-F17 (C15)))
potency compared with CNP22 (NPR-B [2]): comparable potency to CNP22

CC[C@H](C)[C@@H]1NC(=O)[C@H](CCCNC(=N)N)NC(=O)[C@H](CC(=O)O)NC(=O)[C@H](CC(C)C)NC(=O)[C@H](CCCCN)NC(=O)[C@H](CC(C)C)NC(=O)CNC(=O)[C@H](Cc2ccccc2)NC(=O)[C@@H](NC(=O)CNC(=O)[C@H](CCCCN)NC(=O)[C@H](CO)NC(=O)[C@H](CC(C)C)NC(=O)CN)CSSC[C@@H](C(=O)N[C@@H](CC(N)=O)C(=O)N[C@@H](CO)C(=O)N[C@@H](CC(C)C)C(=O)N[C@@H](CCCNC(=N)N)C(=O)N[C@@H](CC(=O)O)C(=O)N2CCC[C@H]2C(=O)N[C@@H](CCCNC(=N)N)C(=O)N2CCC[C@H]2C(=O)N[C@@H](CC(N)=O)C(=O)N[C@@H](C)C(=O)N2CCC[C@H]2C(=O)N[C@@H](CO)C(=O)N[C@H](C(=O)N[C@@H](CO)C(=O)N[C@@H](C)C(=O)O)[C@@H](C)O)NC(=O)CNC(=O)[C@H](CC(C)C)NC(=O)CNC(=O)[C@H](CO)NC(=O)[C@H](CCSC)NC(=O)[C@H](CO)NC(=O)CNC1=O [CDNP-N1] (HELM PEPTIDE1{G.L.S.K.G.C.F.G.L.K.L.D.R.I.G.S.M.S.G.L.G.C.N.S.L.R.D.P.R.P.N.A.P.S.T.S.A}$PEPTIDE1,PEPTIDE1,6:R3-22:R3$$$V2.0)
sensitivity to NEP degradation [1]: comparable NEP sensitivity

CC[C@H](C)[C@@H]1NC(=O)[C@H](CCCNC(=N)N)NC(=O)[C@H](CC(=O)O)NC(=O)[C@H](CC(C)C)NC(=O)[C@H](CCCCN)NC(=O)[C@H](CC(C)C)NC(=O)CNC(=O)[C@H](Cc2ccccc2)NC(=O)[C@@H](NC(=O)CNC(=O)[C@H](CCCCN)NC(=O)[C@H](CO)NC(=O)[C@H](CC(C)C)NC(=O)CN)CSSC[C@@H](C(=O)N[C@@H](CCCCN)C(=O)N[C@@H](CO)C(=O)N[C@@H](CC(C)C)C(=O)N[C@@H](CCCNC(=N)N)C(=O)N[C@@H](CC(=O)O)C(=O)N2CCC[C@H]2C(=O)N[C@@H](CCCNC(=N)N)C(=O)N2CCC[C@H]2C(=O)N[C@@H](CC(N)=O)C(=O)N[C@@H](C)C(=O)N2CCC[C@H]2C(=O)N[C@@H](CO)C(=O)N[C@H](C(=O)N[C@@H](CO)C(=O)N[C@@H](C)C(=O)O)[C@@H](C)O)NC(=O)CNC(=O)[C@H](CC(C)C)NC(=O)CNC(=O)[C@H](CO)NC(=O)[C@H](CCSC)NC(=O)[C@H](CO)NC(=O)CNC1=O [CDNP-K1] (HELM PEPTIDE1{G.L.S.K.G.C.F.G.L.K.L.D.R.I.G.S.M.S.G.L.G.C.K.S.L.R.D.P.R.P.N.A.P.S.T.S.A}$PEPTIDE1,PEPTIDE1,6:R3-22:R3$$$V2.0)
sensitivity to NEP degradation [1]: slightly more sensitive to NEP than the other CDNP variants

CNP-Y17: CNP22 point mutant at position 17; SEQ ID NO: 158 (GLSKGCFGLKLDRIGSYSGLGC; Synthetic Construct (CNP-Y17))
potency compared with CNP22 (NPR-B [2]): improved potency

CNP-R17: CNP22 point mutant at position 17; SEQ ID NO: 157 (GLSKGCFGLKLDRIGSRSGLGC; Synthetic Construct (CNP-R17))
potency compared with CNP22 (NPR-B [2]): improved potency

Fc-CNP53-AAA: Fc-CNP53-A with residues 30 and 31 of CNP53 mutated to alanine; SEQ ID NO: 520
efficacy relative to CNP (NPR-B [3]; [4]): about two-thirds of CNP's efficacy | potency relative to CNP (times less than that of CNP) (NPR-B [3]; [4]): 1.5 times | efficacy relative to CNP (NPR-B [3]; [5]): comparable efficacy | potency relative to CNP (times less than that of CNP) (NPR-B [3]; [5]): 3.3 times | efficacy relative to CNP (NPR-B [2]): 74% | potency relative to CNP (times less than that of CNP) (NPR-B [2]): 14 times

CC[C@H](C)[C@@H]1NC(=O)[C@H](CCCNC(=N)N)NC(=O)[C@H](CC(=O)O)NC(=O)[C@H](CC(C)C)NC(=O)[C@H](CCCCN)NC(=O)[C@H](CC(C)C)NC(=O)CNC(=O)[C@H](Cc2ccccc2)NC(=O)[C@@H](NC(=O)CNC(=O)[C@H](CCCCN)NC(=O)[C@H](CO)NC(=O)[C@H](CC(C)C)NC(=O)CN)CSSC[C@@H](C(=O)N[C@@H](Cc2c[nH]cn2)C(=O)N[C@@H](CO)C(=O)N[C@@H](CC(C)C)C(=O)N[C@@H](CCCNC(=N)N)C(=O)N[C@@H](CC(=O)O)C(=O)N2CCC[C@H]2C(=O)N[C@@H](CCCNC(=N)N)C(=O)N2CCC[C@H]2C(=O)N[C@@H](CC(N)=O)C(=O)N[C@@H](C)C(=O)N2CCC[C@H]2C(=O)N[C@@H](CO)C(=O)N[C@H](C(=O)N[C@@H](CO)C(=O)N[C@@H](C)C(=O)O)[C@@H](C)O)NC(=O)CNC(=O)[C@H](CC(C)C)NC(=O)CNC(=O)[C@H](CO)NC(=O)[C@H](CCSC)NC(=O)[C@H](CO)NC(=O)CNC1=O [CDNP-H1] (HELM PEPTIDE1{G.L.S.K.G.C.F.G.L.K.L.D.R.I.G.S.M.S.G.L.G.C.H.S.L.R.D.P.R.P.N.A.P.S.T.S.A}$PEPTIDE1,PEPTIDE1,6:R3-22:R3$$$V2.0)
sensitivity to NEP degradation [1]: comparable NEP sensitivity

CNP-T17: CNP22 point mutant at position 17; SEQ ID NO: 122 (GLSKGCFGLKLDRIGSTSGLGC; Synthetic Construct (CNP-T17 (C18)))
potency compared with CNP22 (NPR-B [2]): comparable potency to CNP22

Fc-CNP53-A: N-terminal Fc, Gly3 linker, CNP53 with position 48 mutated to alanine; SEQ ID NO: 518
efficacy relative to CNP (NPR-B [3]; [4]): slightly better efficacy than CNP | potency relative to CNP (times less than that of CNP) (NPR-B [3]; [4]): more than twice the potency as CNP | efficacy relative to CNP (NPR-B [3]; [5]): comparable efficacy | potency relative to CNP (times less than that of CNP) (NPR-B [3]; [5]): 1.3 times | efficacy relative to CNP (NPR-B [2]): comparable efficacy | potency relative to CNP (times less than that of CNP) (NPR-B [2]): 5.4 times

CNP-L17: CNP22 point mutant at position 17; SEQ ID NO: 120 (GLSKGCFGLKLDRIGSLSGLGC; Synthetic Construct (CNP-L17 (C16)))
potency compared with CNP22 (NPR-B [2]): comparable potency to CNP22
